Positions count from the first letter of the chain named.

3 molecules from patent publication US20250197502A1 (EXELIXIS, published 2025) can be followed below.

Assay [1] addresses T1, Human CD47, soluble His-tagged extracellular domain (AcroBiosystems Cat# CD7-H82E9) (human, UniProt Q08722 19-139).
T1 construct: Bought reagent; also called biotinylated human CD47 His-Avitag; not shown: His tag / His-Avitag of the bought reagent
The assay is described as follows: phage display selection and phage ELISA on biotinylated human CD47 extracellular domain.

The target of assay [2] is T2, Human PD-L1, soluble His-tagged (AcroBiosystems Cat# PD1-H82E5) (human, UniProt Q9NZQ7 19-238).
T2 construct: The Carterra reagent PD1-H82E5 is only called a soluble, His-tagged antigen; The Biacore reagent is not specified; also called PD-L1/B7-H1; not shown: His tag of the bought reagent
T2 sequence (Q9NZQ7 19-238): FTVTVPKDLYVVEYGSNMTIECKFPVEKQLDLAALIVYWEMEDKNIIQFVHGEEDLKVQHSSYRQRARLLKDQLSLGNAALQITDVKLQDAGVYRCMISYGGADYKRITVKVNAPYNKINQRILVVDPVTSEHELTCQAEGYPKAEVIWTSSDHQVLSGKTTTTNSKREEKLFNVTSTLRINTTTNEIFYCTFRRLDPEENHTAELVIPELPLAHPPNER
Briefly: phage display selection and phage ELISA on biotinylated human PD-L1 extracellular domain, then affinity maturation. On the technique in general: In an ELISA, binding on a coated surface is turned into a signal by an enzyme label.

Assay [3] deals with T3, Human PD-L1 on the cell surface (tumor cell lines) (human, UniProt Q9NZQ7 19-290). Briefly: cell-based or functional assay.
T3 sequence (Q9NZQ7 19-290 limits assumed): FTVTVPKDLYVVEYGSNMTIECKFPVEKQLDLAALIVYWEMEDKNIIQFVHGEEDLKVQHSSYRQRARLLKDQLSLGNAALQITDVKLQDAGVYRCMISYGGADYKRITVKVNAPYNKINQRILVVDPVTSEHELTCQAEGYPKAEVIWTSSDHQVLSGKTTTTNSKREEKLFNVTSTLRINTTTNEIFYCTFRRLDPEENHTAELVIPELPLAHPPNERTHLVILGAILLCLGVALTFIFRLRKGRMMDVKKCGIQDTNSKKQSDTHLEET
Assay [4] deals with T4, CD47 and PD-L1 co-expressed on the surface of tumor cells (PDL1-MDA-MB-231, NCI-H292, HT-1080) (human, UniProt Q08722 19-323; Q9NZQ7 19-290).
T4 construct: Not a complex: two separate membrane proteins on the same cell; also called cells expressing CD47 and PD-L1; PDL1-MDA-MB-231 cells
T4 sequence (Q08722 19-323 limits assumed, chain 1 of 2): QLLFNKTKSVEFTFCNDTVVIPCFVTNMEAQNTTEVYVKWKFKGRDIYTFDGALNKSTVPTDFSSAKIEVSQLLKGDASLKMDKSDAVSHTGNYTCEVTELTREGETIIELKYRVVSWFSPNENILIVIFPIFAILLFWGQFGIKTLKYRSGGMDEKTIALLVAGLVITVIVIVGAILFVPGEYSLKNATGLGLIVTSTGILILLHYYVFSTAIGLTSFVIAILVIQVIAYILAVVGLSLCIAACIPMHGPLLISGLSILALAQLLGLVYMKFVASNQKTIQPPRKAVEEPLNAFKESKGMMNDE
T4 sequence (Q9NZQ7 19-290 limits assumed, chain 2 of 2): as the sequence (Q9NZQ7 19-290 limits assumed) above
The assay is described as follows: flow cytometry, MFI on NCI-H292 tumor cells mixed with human RBC (tumor cells labelled with CellTrace Violet). In general terms: Flow cytometry measures light scatter and fluorescence of single cells or particles in a stream.

Assay [5] has as its target T4, CD47 and PD-L1 co-expressed on the …. Briefly: cell-based or functional assay.
For assay [6], the target named is T5, Human CD47 on the cell surface (tumor cell lines; human red blood cells) (human, UniProt Q08722 19-323). The assay is described as follows: cell-based or functional assay.
T5 sequence (Q08722 19-323 limits assumed): as the sequence (Q08722 19-323 limits assumed, chain 1 of 2) above
Assay [7] addresses T3, Human PD-L1 on the cell surface (tumor …). The assay is described as follows: cell-based or functional assay. This is another data set of the same source.
Assay [8] addresses T5, Human CD47 on the cell surface (tumor …). Briefly: cell-based or functional assay. The source holds these as a separate data set.
Assay [9] has as its target T4, CD47 and PD-L1 co-expressed on the …. The assay is described as follows: flow cytometry (MFI) on NCI-H292 cells endogenously expressing CD47 and PD-L1.
Assay [10] has as its target T6, Cynomolgus CD47, soluble His-tagged (AcroBiosystems Cat# CD7-C52H1) (cynomolgus, UniProt A0A2K5X523 19-139).
T6 construct: Soluble antigen; also called Cyno CD47; cyno-CD47
The assay is described as follows: Biacore (SPR); format not described. A general note: Surface plasmon resonance follows binding to a sensor surface in real time, without labels.

Assay [11] addresses T7, Cynomolgus PD-L1, soluble His-tagged (AcroBiosystems Cat# PD1-C52H4) (cynomolgus, UniProt G7PSE7 19-239).
T7 construct: Soluble antigen; also called Cyno PD-L1; cyno-PD-L1
Briefly: Biacore (SPR); format not described.

In assay [12] the target is T2, Human PD-L1, soluble His-tagged …. The assay is described as follows: Biacore (SPR); format not described.
The target in assay [13] is T1, Human CD47, soluble His-tagged …. The assay is described as follows: Biacore (SPR); format not described.
For assay [14], the target named is T4, CD47 and PD-L1 co-expressed on the …. Briefly: flow cytometry (MFI) on PDL1-MDA-MB-231 cells co-expressing CD47 and PD-L1; PDL1-MDA-MB-231 cells carrying both CD47 (~500,000) and PD-L1 (~1,500,000).
Assay [15] addresses T6, Cynomolgus CD47, soluble His-tagged …. The assay is described as follows: Carterra biosensor kinetics; bsAb1 coupled to HC30M chip, soluble His-tagged antigen 1.2-900 nM, global fit. The protocol: (§1) To obtain accurate kinetic constants, the bispecific antibody was prepared at concentrations ranging from 1 to 10 μg/mL in 10 mM NaOAc (pH 4.25 or pH 4.5), and the coupling reaction was performed in running buffer (25 mM MES, pH 5.5) using multiple chip locations for each concentration. In the next association step, the binding interaction of antigen to the coupled antibody was measured. In general, each binding event consisted of a one minute baseline interval followed by a 5 minute antigen injection and a 15 minute dissociation with HBSTE buffer (10 mM HEPES, 150 mM NaCl, 3 mM EDTA, 0.01% Tween-20, pH 7.4) as running buffer. […] Antigens for binding studies were then prepared by reconstituting according to manufacturer recommendation. To obtain accurate kinetic constants, the reconstituted antigens were subsequently diluted into HBSTE buffer to final concentrations ranging from 1.2 nM to 900 nM. Injections of the antigens at each concentration were performed in series. In the next dissociation step, a regeneration process consisting of three times of injection for 25 seconds with 0.1 M glycine (pH 2.8), 1 M NaCl was performed between each antigen binding event, by which the bound antigen on the surface of the chip was allowed to dissociate. Carterra Kinetics analysis package was used to calculate rate constants (kₐ, kd) and corresponding equilibrium dissociation constants (Kd). Binding data were first recovered by double-referencing to subtract the closest reference cell and blank injection.

In assay [16] the target is T7, Cynomolgus PD-L1, soluble His-tagged …. The description is as above. The protocol:
as §1

Assay [17] addresses T2, Human PD-L1, soluble His-tagged …. The assay is described as above. As for the experimental part:
as §1

Assay [18] has as its target T1, Human CD47, soluble His-tagged …. The assay is described as above. The protocol:
as §1

For assay [19], the target named is T4, CD47 and PD-L1 co-expressed on the …. Briefly: flow cytometry (MFI) on HT-1080 cells endogenously expressing CD47 and PD-L1.

T1 sequence (Q08722 19-139): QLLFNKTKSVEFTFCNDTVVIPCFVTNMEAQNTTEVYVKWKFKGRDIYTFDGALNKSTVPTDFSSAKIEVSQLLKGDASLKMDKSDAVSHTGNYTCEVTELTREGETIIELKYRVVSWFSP
T7 sequence (G7PSE7 entry or part of it): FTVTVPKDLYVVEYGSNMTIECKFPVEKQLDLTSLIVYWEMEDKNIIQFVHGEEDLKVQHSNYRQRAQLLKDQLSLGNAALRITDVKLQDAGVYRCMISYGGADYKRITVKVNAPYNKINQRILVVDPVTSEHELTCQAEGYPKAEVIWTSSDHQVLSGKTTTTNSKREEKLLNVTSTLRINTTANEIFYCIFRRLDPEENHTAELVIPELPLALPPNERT

B1: Antibody mAb-C (selected CD47 binding antibody) (antibody, IgG1, V domains shown)
VH: EVQLVESGGGLVQPGGSLRLSCAASGFTFSWYYIHWVRQAPGKGLEWVAYIDSSSGYTEYADSVKGRFTISADTSKNTAYLQMNSLRAEDTAVYYCARGGYLGMDYWGQGTLVTVSS
VL: DIQMTQSPSSLSASVGDRVTITCRASQSVSSAVAWYQQKPGKAPKLLIYSASSLYSGVPSRFSGSRSGTDFTLTISSLQPEDFATYYCQQSRSRPRTFGQGTKVEIK
notes: Selected as a Fab on phage
With B1, the binding result in assay [1] was “binds”.

B2: Antibody mAb-P (selected and then affinity matured PD-L1 binding antibody) (antibody, human IgG1, V domains shown)
VH: EVQLVESGGGLVQPGGSLRLSCAASGFTFRSYYIHWVRQAPGKGLEWVATISSYGVFTYYADSVKGRFTISADTSKNTAYLQMNSLRAEDTAVYYCARGTTLTPVLDYWGQGTLVTVSS
VL: B1 VL with Y55S, S91F, R92G, S93A, R94E, R96I
Regarding B2, the binding result in assay [2] is “binds”.

B3: bsAb1 (mAb-C x mAb-P in an exemplary format; bispecific anti-CD47 x anti-PD-L1 antibody of four polypeptide chains) (bispecific antibody)
chain 1: not shown
chain 2: EVQLVESGGGLVQPGGSLRLSCAASGFTFSWYYIHWVRQAPGKGLEWVAYIDSSSGYTEYADSVKGRFTISADTSKNTAYLQMNSLRAEDTAVYYCARGGYLGMDYWGQGTLVTVSSAQPREPQVYTLPPCRDWLTKNQVSLTCLVKGFYPSDIAVEWESNGQPENNYKTTPPVLDSDGSFFLYSKLTVDKSRWQQGNVFSCSVMHEALHNHYTQKSLSLSPGK
chain 3: not shown
chain 4: EVQLVESGGGLVQPGGSLRLSCAASGFTFRSYYIHWVRQAPGKGLEWVATISSYGVFTYYADSVKGRFTISADTSKNTAYLQMNSLRAEDTAVYYCARGTTLTPVLDYWGQGTLVTVSSASTKGPSVFPLAPSSKSTSGGTAALGCLVKDYFPEPVTVSWNSGALTSGVHTFPAVLQSSGLYSLSSVVTVPSSSLGTQTYICNVNHKPSNTKVDKKVEPKSC
notes: Chains 1+2 form the CD47 arm (mAb-C), chains 3+4 the PD-L1 arm (mAb-P); also called the selected bispecific antibody
Take B3: the “IC50, PD-L1/PD-1 block (PathHunter PD-1/PD-L1 signaling bioassay)” value in assay [3] amounted to 0.5 nM. For the same molecule, the EC50 (read off the curve) (as a rule, the concentration giving half of the maximal effect) in assay [4] is around 0.7 nM. Further, in assay [5], the “ADCP (phagocytosis of NCI-H292 cells) EC50” value is 0.2 nM. Moreover, the “IC50, CD47/SIRPa block (PathHunter CD47/SIRPα signaling bioassay)” value in [6] worked out at 0.8 nM. For the same molecule, the “EC50 of inhibiting PD-1/PD-L1 interaction in PDL1-MDA-MB-231 cells (PathHunter chemiluminescent signal)” value in assay [7] was determined as 0.22 nM. Moreover, the “EC50 of inhibiting CD47/SIRPα signaling in PDL1-MDA-MB-231 cells (PathHunter chemiluminescent signal)” value in assay [8] came out at 0.076 nM. Also, the figures for the EC50 in assay [9], in [14] and in [19] were 0.7 nM, 0.22 nM and 0.2 nM, respectively. Besides, the dissociation constant (Kd) (as a rule, a measure of binding affinity in units of concentration) is 25 nM in assay [10]; 0.034 nM in assay [11]; 0.05 nM in assay [12]; 21 nM in assay [13]; 24 nM in assay [15]; 0.18 nM in assay [16]. Also, the Kd in assay [17] amounted to 0.15 nM; in [18], 27 nM. The koff (commonly the first-order rate constant of dissociation) turned out to be 0.0137 s⁻¹ in assay [10]; 0.00012 s⁻¹ in assay [11]; 0.000164 s⁻¹ in assay [12]; 0.0141 s⁻¹ in [13]; 0.0046 s⁻¹ in assay [15]; 0.00015 s⁻¹ in assay [16]. Moreover, the values for the off-rate constant (koff) in assay [17] and in assay [18] were 0.00013 s⁻¹ and 0.0093 s⁻¹, respectively. For the same molecule, the kon (commonly the rate constant with which the complex forms) in assay [15] turned out to be 190000 M⁻¹ s⁻¹; in [16], 890000 M⁻¹ s⁻¹; in [17], 980000 M⁻¹ s⁻¹; in assay [18] it was 350000 M⁻¹ s⁻¹.
